This passage reports time dependent transglycosylation (HPLC, percent of Herceptin-GlcNAc remaining) results from patent US20200062861A1.

This assay deals with Herceptin-GlcNAc. Nature of the assay: cell-based or functional assay.

As for EndoSz-D234M (enzyme), the time dependent transglycosylation (HPLC, percent of Herceptin-GlcNAc remaining) was 0%.
